Assay results: patent US20160031999A1 (CSL, published 2016)
Residue numbers refer to the chain shown, from its start.

B1: hu8E2-TS-313 (antibody, V domains shown)
VH: EVQLLESGGGLVQPGGSLRLSCAASGFTFSWYSMTWVRQAPGKGLEWVSSIVPSGGHTQYADSVKGRFTISRDNSKNTLYLQMNSLRAEDTAVYYCAKGPGWGSFDLWGRGTLVTVSS
VL: DIQMTQSPSSLSASVGDRVTITCQASQDVSGYVEWYQQKPGKAPKLLIYDASNLQTGVPSRFSGSGSGTDFTFTISSLQPEDIATYYCQQYDNLSPTFGPGTKVDIK
B2: hu8E2-TS-305 (antibody, V domains shown)
VH: B1 VH
VL: B1 VL with S30G, G31I
B3: hu8E2-TS-306 (antibody, V domains shown)
VH: B1 VH
VL: B1 VL with S30D, G31K
B4: hu8E2-TS-322 (antibody, V domains shown)
VH: B1 VH
VL: B1 VL with S30H, G31H, V33M
B5: hu8E2-TS-311 (antibody, V domains shown)
VH: B1 VH
VL: B1 VL with G31Q, V33I
B6: hu8E2-TS-312 (antibody, V domains shown)
VH: B1 VH
VL: B1 VL with V29I, S30G, G31Q
B7: hu8E2-TS-310 (antibody, V domains shown)
VH: B1 VH
VL: B1 VL with S30A, G31M, V33I
B8: hu8E2-TS-307 (antibody, V domains shown)
VH: B1 VH
VL: B1 VL with G31M
B9: hu8E2-TS-213 (antibody, V domains shown)
VH: B1 VH with S104Q, D106A, L107V
VL: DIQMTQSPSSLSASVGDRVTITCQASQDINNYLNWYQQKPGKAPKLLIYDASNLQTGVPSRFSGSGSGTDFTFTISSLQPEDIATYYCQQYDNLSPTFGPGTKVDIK

The binders below were run against T1, human IL-11Rα (form used in the assay not stated) (human, UniProt Q14626 23-363, limits assumed) (assay: Biacore, pH 8.5, 37°C).
T1 construct: also called hIL-11R; hIL-11Rα
T1 sequence: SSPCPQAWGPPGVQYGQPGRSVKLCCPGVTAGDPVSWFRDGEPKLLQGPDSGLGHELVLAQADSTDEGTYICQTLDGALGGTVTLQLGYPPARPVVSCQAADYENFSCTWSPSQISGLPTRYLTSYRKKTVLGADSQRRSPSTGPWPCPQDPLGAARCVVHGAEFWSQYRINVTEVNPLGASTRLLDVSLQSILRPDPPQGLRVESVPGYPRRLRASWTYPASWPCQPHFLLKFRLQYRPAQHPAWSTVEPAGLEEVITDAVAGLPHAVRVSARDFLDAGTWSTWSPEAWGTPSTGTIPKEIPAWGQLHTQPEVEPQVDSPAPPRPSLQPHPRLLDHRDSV

Compared with B1, B2 is 3.5-fold lower in Kd: 5.56 nM for the first, 1.58 nM for the second.

First: B3
Second: B4
The Kd of the first is 5.6-fold lower: 1.07 nM for the first, 6.01 nM for the second. The first binds more tightly here.

B5 and B6 are within 1.5-fold of each other in Kd: 1.69 nM for the first, 1.76 nM for the second.

Compared with B7, B8 is 1.6-fold lower in Kd: 2.09 nM for the first, 1.32 nM for the second.

What follows are binders tested against T1, human IL-11Rα (form used in the assay …) (assay: Biacore, pH 8.5, 37°C; some heterogeneity observed, an accurate KD difficult to determine).

B9 was tested, and the Kd was > 9 nM.

What follows are binders tested against T2, human IL-11Rα on transfected cells (human, UniProt Q14626 23-422) (assay: cell-based or functional assay).
T2 sequence: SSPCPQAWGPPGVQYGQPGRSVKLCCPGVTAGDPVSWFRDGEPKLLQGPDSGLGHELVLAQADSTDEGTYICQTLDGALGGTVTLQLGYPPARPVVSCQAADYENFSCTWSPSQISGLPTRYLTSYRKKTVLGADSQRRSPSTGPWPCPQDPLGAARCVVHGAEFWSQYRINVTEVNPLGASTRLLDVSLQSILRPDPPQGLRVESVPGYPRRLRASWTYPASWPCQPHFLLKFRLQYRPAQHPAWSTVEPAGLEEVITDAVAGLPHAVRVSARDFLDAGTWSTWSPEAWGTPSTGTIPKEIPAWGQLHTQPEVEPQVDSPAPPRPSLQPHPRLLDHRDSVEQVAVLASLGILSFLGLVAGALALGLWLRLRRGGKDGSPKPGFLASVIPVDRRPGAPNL

First: B9
Second: B1
The “Fold increase in potency relative to 8E2” value of the first is higher: 1.2 fold for the first, 0.7 fold for the second.

Compared with B2, B3 is higher in “Fold increase in potency relative to 8E2” value: 2.1 fold for the first, 3.3 fold for the second.

First: B4
Second: B5
The “Fold increase in potency relative to 8E2” value of the first is higher: 1.1 fold for the first, 0.6 fold for the second.

Compared with B6, B7 is lower in “Fold increase in potency relative to 8E2” value: 1.2 fold for the first, 0.4 fold for the second.

With B8 the “Fold increase in potency relative to 8E2” value was 1.9 fold.

B9 and B1 are the same in “IC50” value: 0.51 µg/mL for the first, 0.51 µg/mL for the second.

Going from B2 to B3, the “IC50” value falls from 0.23 µg/mL to 0.15 µg/mL (1.5-fold).

First: B4
Second: B5
The “IC50” value of the first is 1.8-fold lower: 0.33 µg/mL for the first, 0.6 µg/mL for the second.

First: B6
Second: B7
The “IC50” value of the first is 2.9-fold lower: 0.29 µg/mL for the first, 0.84 µg/mL for the second.

In the case of B8, the “IC50” value is reported as 0.25 µg/mL.
